Changes are numbered by the printed parent chain.
B1: SCT-Fa076 (antibody, V domains shown)
VH: EVQVLETGGGLVQPGGSRGLSCEGSGFTFSGFWMSWVRQTPGKTLEWIGDINSDGSTIHYGPSMKDRFTIFRDNDKNTLYLQMNNVRSEDTAKYFCMSLLLNVWGTGTTVTVSS
VL: DIQMTQSPSSLSASLGERVSLTCRASQEISGYLSWLQQKPDGTIKRLISRASSLDFGVPKRFRGSRSGSDYSLTISSLESEDFADYYCLQYANYPLTFGAGTKLELK
notes: murine IgG
B2: SCT-Fa095 (antibody, V domains shown)
VH: QVQLKESGPGLVAPSQSLSITCTVSGFSLTSSVISWVRQPPGKGLEWLGIIWAGGDTNYNSALKSRLSISKDNSKSQVFLKMNSLQTDDTARYYCARNLNAMDYWGQGTSVTVSS
VL: DVLMTQTPLSLTVSLGDQASISCRSSQSIVHSNGNTYLEWFLQKPGQSPKLLIYKVSNRFSGVPDRFSGSGSGTDFTLKISRVEAEDLGVYYCFQGSHVPWTFGGGTKLEIK
notes: murine IgG
B3: SCT-Fa068 (antibody, V domains shown)
VH: EVQLQQSGTVLARPGASVKMSCKTSGYTFTRYWMHWVKQRPGQGLEWIGAIYPGNSDTNYNQKIKGKAKLTAVTTASTAYMELSSLTNEDSAVYYCTFYYGNYVNYWGQGTTLTVSS
VL: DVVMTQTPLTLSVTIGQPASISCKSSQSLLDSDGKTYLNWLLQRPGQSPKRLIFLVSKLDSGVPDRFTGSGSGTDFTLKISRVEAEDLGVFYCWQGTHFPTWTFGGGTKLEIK
notes: murine IgG
B4: SCT-Fa064 (antibody, V domains shown)
VH: B3 VH with G66D, Y99F
VL: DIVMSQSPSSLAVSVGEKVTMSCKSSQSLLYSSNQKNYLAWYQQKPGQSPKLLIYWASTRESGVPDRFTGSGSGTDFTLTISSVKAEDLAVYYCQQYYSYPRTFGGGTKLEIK
notes: murine IgG
B5: SCT-Fa066 (antibody, V domains shown)
VH: B3 VH with V93A
VL: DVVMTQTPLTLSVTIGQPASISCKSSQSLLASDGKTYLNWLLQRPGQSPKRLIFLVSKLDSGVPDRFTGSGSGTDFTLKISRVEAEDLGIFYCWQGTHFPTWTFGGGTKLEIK
notes: murine IgG
B6: SCT-Fa067 (antibody, V domains shown)
VH: B3 VH
VL: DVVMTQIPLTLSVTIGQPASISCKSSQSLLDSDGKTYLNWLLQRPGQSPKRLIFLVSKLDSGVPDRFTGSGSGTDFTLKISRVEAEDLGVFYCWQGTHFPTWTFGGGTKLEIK
notes: murine IgG
B7: SCT-Fa063 (antibody, V domains shown)
VH: B3 VH with T30I, N59T, I64F, K67R, T75S, Y106F
VL: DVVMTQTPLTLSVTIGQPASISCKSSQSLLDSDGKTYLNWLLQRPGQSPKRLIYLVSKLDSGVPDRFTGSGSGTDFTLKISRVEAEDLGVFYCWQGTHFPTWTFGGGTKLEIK
notes: murine IgG
B8: SCT-Fa069 (antibody, V domains shown)
VH: B3 VH with K65Q, G66D, Y99F
VL: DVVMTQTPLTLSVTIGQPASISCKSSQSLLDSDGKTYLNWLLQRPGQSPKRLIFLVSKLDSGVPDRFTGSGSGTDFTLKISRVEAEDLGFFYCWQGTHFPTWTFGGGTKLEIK
notes: murine IgG
B9: SCT-Fa062 (antibody, V domains shown)
VH: B3 VH with S25P
VL: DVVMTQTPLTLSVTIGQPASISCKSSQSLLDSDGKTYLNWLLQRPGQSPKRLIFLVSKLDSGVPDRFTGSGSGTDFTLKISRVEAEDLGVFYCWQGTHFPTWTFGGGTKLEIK
notes: murine IgG
B10: SCT-Fa065 (antibody, V domains shown)
VH: B3 VH with S84I
VL: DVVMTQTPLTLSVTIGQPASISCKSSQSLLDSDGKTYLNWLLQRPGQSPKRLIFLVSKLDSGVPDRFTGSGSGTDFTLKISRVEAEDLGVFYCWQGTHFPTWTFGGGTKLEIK
notes: murine IgG
B11: SCT-Fa077 (antibody, V domains shown)
VH: EVRLVESEGGLVQPGSSMKLSCTASGFTFSDYYMAWVRQVPEKGLEWVANINYDGTNTYYLDSLKSRFIISRDNAKNILYLQMSGLKSEDTATYYCGRGIYYYGRSHAMDYWGQGTSVTVSS
VL: DILMTQSPSSMSVSLGDTVSITCHASQGINNNVGWLQQKPGKSFKGLIYHGTNLEDGVPSRFSGSGSGADYSLTIYSLESEDFADYYCVQYDQFPPTFGGGTKLEIK
notes: murine IgG
B12: SCT-Fa054 (antibody, V domains shown)
VH: EVQLQQSGPVLVKPGASVKMSCKASGYSFTGYHMNWVKQSHGKSLEWIGIINPYNSATTYNQKFKGKATLTVDKSSSTAYMEVNSLTSEDSLVYYCVRGAYGNPLDYWGQGTTLTVSS
VL: DIKMTQSPSSMYASLGERVTITCKASQDINSYLSWFQQKPGKSPKTLIYRANRLLDGVPSRFSGSGSGQDYSLTISSLEYEDMGIYYCLQYDEYPYTFGGGTKLEIK
notes: murine IgG
B13: SCT-Fa092 (antibody, V domains shown)
VH: QIQLVQSGPEMKKPGETVKISCKASGYTFRTYGMSWVKQAPGKGLEWMGWINTYSGEPTYADDFKGRFAFSLETSANTAYLQINNLKNEDTATFFCARAQHYFDWWGQGTTLTVSS
VL: B12 VL with N30D, S34N, N52T, L55V, Y94F
notes: murine IgG
B14: SCT-Fa055 (antibody, V domains shown)
VH: EVQLQQSGPVLVKPGASVKMSCKASGYTFTDYHMNWVKQSHGKSLEWIGVISPYNGGTSQNQKFKGKATLTVDKSSSTAYMELNRLTSEDSAVYYCARSDYGSPLDYWGQGTTLTVSS
VL: B12 VL with S34R, L55V, T74N, Y94F
notes: murine IgG
B15: SCT-Fa059 (antibody, V domains shown)
VH: B12 VH with K23Q, A57G, T58I, K67R, S77D, E82D, V83L, L92V
VL: B12 VL with K3R, M11I, K45E, A51T, L55V
notes: murine IgG
B16: SCT-Fa061 (antibody, V domains shown)
VH: B12 VH with K13R, G42V, K63N, V83L, L92V
VL: B12 VL with Q38L, L55V, R61G
notes: murine IgG
B17: SCT-Fa091 (antibody, V domains shown)
VH: B13 VH
VL: B12 VL with N30D, S31R, S34N, N52T, L55V, Y94F
notes: murine IgG
B18: SCT-Fa090 (antibody, V domains shown)
VH: B13 VH with T28I
VL: B12 VL with N30D, S34N, N52T, L55V, Y94F
notes: murine IgG
B19: SCT-Fa072 (antibody, V domains shown)
VH: EVQLVESGGDLVKPGGSLKLSCAASGFTFSDYGMSWVRQTPDKRLEWVATISSGGSYTYYADSVKGRFTISRDNAKNTLYLQMSSLKSEDTAMYFCTRHEITTVLSTDYAMDYWGQGTSVTVSS
VL: DVVMTQTPLSLPVSLGDQASISCRSSQSLVHSIGNTYLHWYLQKPGQSPKLLIYKVSNRFSGVPDRFSGSGSGTDFTLKIIRVEAEDLGVYFCSQSTHIPWTFGGGTKLELR
notes: murine IgG
B20: SCT-Fa094 (antibody, V domains shown)
VH: QVLLQQPGAELVRPGTSVKLSCKASGYTFTNFWMHWVKQRPGQGLEWIGVIDPSDISTHYNQNFKGKAILTVDTSSSSAYMQLSSLTSEDSAVYYCARNDYDGGYFDYWGQGTTLTVSS
VL: B19 VL with S32G, I33N, K55T, I81S, S96T, T97I, I99A, L111I, R112K
notes: murine IgG
B21: SCT-Fa088 (antibody, V domains shown)
VH: QIQLQQSGPELVKPGASVKISCKASGYTFTDYYINWVKQRPGQGLEWIGWIYPGSGNTKYNEKFKGKATLTVDTSSSTAYMQLSSLTSEDSAVYFCARAYDYGFAYWGQGTLVTVSA
VL: SIVMTQTPKFLLVSAGDRVTITCKASQSVSHGVTWYQQKPGQSPKLLISYASNRYTGVPDRFTGSGYGTDFTFTISTVQAEDLAVYFCQQDYSSPYTFGGGTKLEIK
notes: murine IgG
B22: SCT-Fa086 (antibody, V domains shown)
VH: B21 VH with S77N, A105P
VL: B21 VL with V29M, S30N, H31N, T77A
notes: murine IgG
B23: SCT-Fa087 (antibody, V domains shown)
VH: B21 VH with Q82H
VL: B21 VL with H31Y, A51S, Y67S
notes: murine IgG
B24: SCT-Fa057 (antibody, V domains shown)
VH: EVQLQQSGPVLVKPGASVKMSCKASGYTFTDYYMNWVKQSHGKSLEWIGVINPYNGGTSYNQKFKGKATLTVDKSSSTAYMELNSLTSEDSAVYYCARGGDYDVNYSAMDYWGQGTSVTVSS
VL: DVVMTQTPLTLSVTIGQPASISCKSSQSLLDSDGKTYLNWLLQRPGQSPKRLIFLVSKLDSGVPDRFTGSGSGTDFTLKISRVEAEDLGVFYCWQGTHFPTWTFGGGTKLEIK
notes: murine IgG

molecular target: T1, Human TIM-3 Human Fc tagged protein (human, fluorescently labeled with HiLyte Fluor 555 (sites not given)); test: capture slide probed with labeled TIM-3-Fc;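 further: IgG from single CD138-enriched plasma cells, isolated from lymphocytes, immobilized on a derivatized glass slide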
T1 construct: Bought construct; also called TIM-3 protein tagged with human Fc; ACROBiosystems catalog no: TM3-H5258

| binding result | Binder |
| --- | --- |
| binds | B1 |
| binds | B2 |
| binds | B3 |
| binds | B4 |
| binds | B5 |
| binds | B6 |
| binds | B7 |
| binds | B8 |
| binds | B9 |
| binds | B10 |
| binds | B11 |
| binds | B12 |
| binds | B13 |
| binds | B14 |
| binds | B15 |
| binds | B16 |
| binds | B17 |
| binds | B18 |
| binds | B19 |
| binds | B20 |
| binds | B21 |
| binds | B22 |
| binds | B23 |
| binds | B24 |

Source: patent publication US20230279105A1 (SINGLE CELL TECHNOLOGY, published 2023)
